The source of these data is US20140120095A1 (Boehringer Ingelheim, published 2014).

The target in experiment [1] is T1, human DLL4 overexpressed on cells (human, UniProt Q9NR61 27-685).
T1 construct: full length human DLL4 on CHO or HEK293 cells; also called CHO-hDLL4; CHO-hDII4
Description: FMAT, labelled hNotch1-Fc on CHO-hDLL4, periplasmic extract. The text has this:
(§1) All calculations are based on the FL1_total signal which comprises the average of the fluorescence per well times the number of counts per well.

The target of experiment [2] is T2, mouse DLL4 overexpressed on cells (mouse, UniProt Q9JI71 27-686).
T2 construct: whole, on cells; also called CHO-mDLL4; CHO-mDII4
T2 sequence (Q9JI71 27-686): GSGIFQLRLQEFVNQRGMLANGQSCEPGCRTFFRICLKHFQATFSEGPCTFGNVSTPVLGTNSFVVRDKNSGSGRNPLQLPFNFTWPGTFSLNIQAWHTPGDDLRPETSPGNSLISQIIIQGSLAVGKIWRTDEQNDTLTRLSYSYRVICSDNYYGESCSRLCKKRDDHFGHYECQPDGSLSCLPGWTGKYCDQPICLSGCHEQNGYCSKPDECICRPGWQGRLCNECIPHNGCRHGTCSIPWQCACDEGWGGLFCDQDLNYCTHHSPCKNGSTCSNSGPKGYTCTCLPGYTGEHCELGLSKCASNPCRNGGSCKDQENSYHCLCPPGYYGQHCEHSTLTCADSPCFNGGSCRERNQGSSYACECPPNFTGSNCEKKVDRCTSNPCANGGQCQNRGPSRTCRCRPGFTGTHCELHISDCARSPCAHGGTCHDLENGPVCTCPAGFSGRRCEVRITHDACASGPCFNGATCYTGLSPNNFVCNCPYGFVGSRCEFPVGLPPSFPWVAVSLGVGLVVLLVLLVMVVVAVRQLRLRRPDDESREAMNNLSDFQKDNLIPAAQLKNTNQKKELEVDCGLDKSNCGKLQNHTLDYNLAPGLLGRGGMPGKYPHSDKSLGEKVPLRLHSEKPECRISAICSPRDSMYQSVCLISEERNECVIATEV
Description: FMAT, labelled hNotch1-Fc on CHO-mDLL4, periplasmic extract.
Excerpt: as §1

In a further experiment the target is T3, recombinant human DLL4 (human, UniProt Q9NR61 25-522).
T3 construct: also called rhDLL4; hDLL4
Kind of experiment: Biacore off-rate, periplasmic extract; single VHH, not bracketed. A general note: In SPR one partner is held on a chip, and binding of the other changes the refractive index at the surface.

For a further experiment, the target named is T4, PIGF (UniProt P49763-2 21-149, limits assumed).
T4 construct: also called placenta growth factor
T4 sequence (looked up): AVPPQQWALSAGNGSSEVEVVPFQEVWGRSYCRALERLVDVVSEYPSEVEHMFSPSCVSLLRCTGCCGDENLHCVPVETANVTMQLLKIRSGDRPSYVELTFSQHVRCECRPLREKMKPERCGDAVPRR
Kind of experiment: solid phase binding ELISA on coated PIGF (Example 12.8). The procedure: (§2) Binding to VEGFB, VEGFC, VEGFD and PIGF is assessed via a solid phase binding ELISA. […] Wells are blocked with a casein solution (1% in PBS). […] As positive controls serial dilutions of the appropriate receptors are taken along and detected with horseradish peroxidase (HRP)-conjugated goat anti-human IgG, Fc specific antibody (Jackson Immuno Research Laboratories Inc., West Grove, Pa., USA) and a subsequent enzymatic reaction in the presence of the substrate TMB (3,3′,5,5′-tetramentylbenzidine) (Pierce, Rockford, Ill., USA).
(ELISA stands for enzyme-linked immunosorbent assay.)

For a further experiment, the target named is T5, VEGFC (UniProt P49767 103-227, limits assumed).
T5 sequence (looked up): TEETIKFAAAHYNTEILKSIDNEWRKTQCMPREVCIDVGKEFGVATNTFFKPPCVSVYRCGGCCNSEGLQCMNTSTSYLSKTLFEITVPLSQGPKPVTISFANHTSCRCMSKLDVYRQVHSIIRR
Description: binding ELISA on coated VEGFC (Example 12.8), OD 450 nm. How it is done: as §2

A further experiment has as its target T6, VEGFD (UniProt O43915 93-201, limits assumed).
T6 sequence (looked up): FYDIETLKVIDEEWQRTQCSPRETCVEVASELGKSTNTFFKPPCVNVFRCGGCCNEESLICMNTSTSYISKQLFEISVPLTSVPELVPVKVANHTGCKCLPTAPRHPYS
Kind of experiment: binding ELISA on coated VEGFD (Example 12.8), OD 450 nm. How it is done: as §2

The next experiment has as its target T7, VEGFB (UniProt P49765-2 22-188, limits assumed).
T7 sequence (looked up): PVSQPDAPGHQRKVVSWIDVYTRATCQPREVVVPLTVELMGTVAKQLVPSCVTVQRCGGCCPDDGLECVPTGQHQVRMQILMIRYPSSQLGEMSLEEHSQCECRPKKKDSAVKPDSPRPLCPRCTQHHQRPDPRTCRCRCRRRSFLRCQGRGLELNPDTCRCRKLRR
Kind of experiment: binding ELISA on coated VEGFB (Example 12.8), OD 450 nm. How it is done: as §2

Experiment [3] addresses T8, mouse DLL4, full length, overexpressed on CHO cells (mouse, UniProt Q9JI71 27-686).
T8 construct: whole, on cells; also called mDLL4; CHO-mDLL4
Description: FMAT, hNotch1-Fc on CHO-mDLL4, -HSA.

Experiment [4] deals with T9, human DLL4, full length, overexpressed on cells (human, UniProt Q9NR61 27-685).
T9 construct: CHO cells in FMAT, HEK293 cells in the reporter assay; also called hDLL4; CHO-hDLL4
Kind of experiment: FMAT, hNotch1-Fc on CHO-hDLL4, -HSA.

In experiment [5] the target is T9, human DLL4, full length, overexpressed …. Kind of experiment: FMAT, hNotch1-Fc on CHO-hDLL4, +25 uM HSA.
The target of experiment [6] is T8, mouse DLL4, full length, overexpressed …. Description: FMAT, hNotch1-Fc on CHO-mDLL4, +25 uM HSA.
For a further experiment, the target named is T10, human VEGFR2-Fc chimera (human, UniProt P35968 20-764).
T10 construct: also called hVEGFR2-Fc; VEGFR2-huFc; not shown: human Fc part of the bought chimera; not described
T10 sequence (P35968 20-764, change not shown): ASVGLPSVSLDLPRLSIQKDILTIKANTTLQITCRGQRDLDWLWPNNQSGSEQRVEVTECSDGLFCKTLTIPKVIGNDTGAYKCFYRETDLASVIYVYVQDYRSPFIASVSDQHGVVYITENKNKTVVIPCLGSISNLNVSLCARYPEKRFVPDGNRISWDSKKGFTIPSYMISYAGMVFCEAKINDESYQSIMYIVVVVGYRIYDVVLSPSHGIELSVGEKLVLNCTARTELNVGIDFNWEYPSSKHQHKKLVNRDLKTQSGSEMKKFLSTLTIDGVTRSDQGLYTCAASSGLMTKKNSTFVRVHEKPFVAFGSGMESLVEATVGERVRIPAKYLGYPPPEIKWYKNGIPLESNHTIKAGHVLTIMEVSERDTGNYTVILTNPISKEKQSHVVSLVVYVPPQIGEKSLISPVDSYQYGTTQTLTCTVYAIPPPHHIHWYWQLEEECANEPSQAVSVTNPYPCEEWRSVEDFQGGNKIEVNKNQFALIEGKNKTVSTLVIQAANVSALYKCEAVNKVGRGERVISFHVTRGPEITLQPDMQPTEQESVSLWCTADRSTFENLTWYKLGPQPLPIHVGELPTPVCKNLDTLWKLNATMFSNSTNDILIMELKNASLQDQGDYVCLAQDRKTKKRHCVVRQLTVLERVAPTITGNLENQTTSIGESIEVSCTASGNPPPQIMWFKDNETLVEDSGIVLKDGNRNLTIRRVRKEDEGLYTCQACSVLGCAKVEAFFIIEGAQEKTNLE
Kind of experiment: ELISA, coated VEGF109. The procedure: Cells are harvested by centrifugation and lysed by sonication of the cell pellet. Inclusion bodies are isolated by centrifugation. […] The refolded protein is purified by ion exchange chromatography using a MonoQ5/50GL (Amersham BioSciences) column followed by gel filtration with a Superdex75 10/300 GL column (Amersheim BioSciences). […] To this end, 1 μg/mL of recombinant human VEGF109 is immobilized overnight at 4° C. in a 96-well MaxiSorp plate (Nunc, Wiesbaden, Germany). Wells are blocked with a casein solution (1%).

T8 sequence (Q9JI71 27-686): as the sequence (Q9JI71 27-686) above

B1: DLLBII101F01 (VHH)
VHH: EVQLVESGGGLVQAGGSLRLSCAASGRTFSNYAMGWFRQAPGKEREFVAAISWSGGDTYYADSVKGRFTISRDNAKNTVCLQMNSLKPEDTAVYYCAASFQSGAAPGANFYDYWGQGTQVTVSS
For orientation: koff means the rate constant with which the complex falls apart. Consider B1, for which the figures for the “% inh” value in experiment [1] and in experiment [2] were 85% and 78%, respectively. Besides, the koff with recombinant human DLL4 came out at 0.02 s⁻¹.

B2: VEGFBII010 (VHH)
chain: EVQLVESGGGLVQTGDSLRLSCEVSGRTFSSYSMGWFRQAQGKEREFVVAISKGGYKYDSVSLEGRFTISKDNAKNTVYLQINSLKPEDTAVYYCASSRAYGSSRLRLADTYEYWGQGTQVTVSSGGGGSGGGGSGGGGSGGGGSGGGGSGGGGSGGGGSEVQLVESGGGLVQTGDSLRLSCEVSGRTFSSYSMGWFRQAQGKEREFVVAISKGGYKYDSVSLEGRFTISKDNAKNTVYLQINSLKPEDTAVYYCASSRAYGSSRLRLADTYEYWGQGTQVTVSS
notes: homodimeric bivalent VHH; also called VEGFBII23B04-35GS-23B04
Consider B2, for which the binding result with PIGF is given as “no binding (tested: about 5e-7 M)”; with VEGFC it was “no binding (tested: 5e-7 M)”; with VEGFD, “no binding (tested: 5e-7 M)”; in the experiment with VEGFB it was “no binding (tested: 5e-7 M)”.

B3: DLLBII018 (VHH)
VHH: EVQLVESGGGLVQPGGSLRLSCAASGRTFSSYAMAWYRQAPGKEREYVAAIRWSGGTAYYADSVKGRFTISRDNAKNTVYLQMNSLRPEDTAVYYCANRAPDTRLAPYEYDHWGQGTLVTVSS
What is called IC50 is the concentration that gives 50% inhibition. A lower IC50 goes with greater potency in that assay. B3: the “% inh” value in experiment [3] turned out to be 99%; in experiment [4], 87%. Besides, the IC50 was determined as 2.4 nM in experiment [3], 5.5 nM in [4], 7.1 nM in experiment [5] and 2.8 nM in [6].

B4: recombinant human VEGF109 (ligand, UniProt P15692 207-315, looked up)
chain: APMAEGGGQNHHEVVKFMDVYQRSYCHPIETLVDIFQEYPDEIEYIFKPSCVPLMRCGGCCNDEGLECVPTEESNITMQIMRIKPHQGQHIGEMSFLQHNKCECRPKKD
notes: residue numbers count on GenBank AAM03108.1; also called rhVEGF109
In the case of B4, the binding result with human VEGFR2-Fc chimera was “binds”.
